According to the supplement of paper PMC9170038:

System: MS2 coat protein
Test: apparent KD of MS2 coat protein; designed switch direction (-1 OFF switch, 1 ON switch): -1; higher = weaker reporter binding
In short: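 The reported apparent KD is a per-design median over clusters, from curve fits of normalised cluster fluorescence. Protein titrations used SNAP-549-labelled MS2 coat protein, doubled from 0.7 or 1.5 nM to 3 µM, in Tris-HCl pH 7.5 buffer with KCl, MgCl2, BSA, DTT, tRNA and Tween-20, with no input, 200 uM small-molecule ligand, or an oligonucleotide input. The RNA switches were transcribed on Illumina chips by stalled E. coli RNA polymerase.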

[1] = Eterna round: R95, input ligand: FMN 200 uM
[2] = Eterna round: R95, input ligand: microRNA oligo, concentration not stated
[3] = Eterna round: R95, input ligand: none
[4] = input ligand: microRNA oligo, concentration not stated

Row | Sequence | apparent KD of MS2 coat protein (input ligand: FMN 200 uM) [nM] | apparent KD of MS2 coat protein (input ligand: none) [nM] | apparent KD of MS2 coat protein [1] [nM] | apparent KD of MS2 coat protein [2] [nM] | apparent KD of MS2 coat protein [3] [nM] | apparent KD of MS2 coat protein [4] [nM]
1 | GAGAAAUGUGUUAGGAUAUCCCGCUAAAGCAGAUAGGAGAAGGAACAUGAGGAUCACCCAUGUAGGGAGGGCCA [Eternabot (Original) Solution 17] (Eterna round: R97, puzzle: Brourd's mod of Exclusion 4) | 192 | 67 |  |  |  | 
2 | GAGAAGGUAGGAUAUACGAAUAAAUAGGGUAGUAAUAAUACACAUGAGGAUCACCCAUGUAGAAGGACCAAGAG [Mat - Exclusion 2 - Mod of my Tesla design - D39] (puzzle: Exclusion 2) |  |  | 38.1 | 22.8 | 25 | 
3 | GAGAGAAUCUAGGAUAUAUCAAGAGAAGGAGAGAUAGAAGGAGAGACAUGAGGAUCACCCAUGUCUUCGUGUAG [Default title] (Eterna round: R97, puzzle: Exclusion 6) | 16.6 | 15.8 |  |  |  | 
4 | GAGAGGAGUGUAGGAUAUUUAAGGGAGGAGGAGGGAGAAGGACAUGAGGAUCACCCAUGUAGGAAGAGAGGAGGAGUACAGGAG [Default title] (Eterna round: R96, puzzle: Exclusion NG 1) | 46.1 | 32.3 |  |  |  | 19.3
5 | GAGCCAUCGUGAGAUGGCUAAUAUACAUGAGGAUCACCCAUGUAGGAUAUCGAUUGCUUUGCAGUCGAGAAGGACAUGUUUAAU [JL ENG3 3.97] (Eterna round: R96, puzzle: Exclusion NG 3) | 67.4 | 33.7 |  |  |  | 26.7
6 | GAGGAACAUGAGGAUCACCCAUGUGAGGAUAUGCAUAGUGAGGUAGUAGAAGUUGAAUGCAGAAGGUACACUGA [JR_Exclu1_Sub077] (puzzle: Exclusion 1) |  |  |  | 39 |  | 
7 | GAGGGACAUGAGGAUCACCCAUGUGAGGAUAUGUGAGAAGGAUUGGAGAGAAAAGGAAACAGAAGGCGCGGGAG [JR_Exclu1_Sub086] (puzzle: Exclusion 1) |  |  | 59.5 | 50.9 | 54.7 | 
8 | GAGGUGGGUUUUCAGAGUAACAUGAGGAUCACCCAUGUAGAAGUUGAAGGUAUCAAGCGAAUGGCUCGUCAAAUGUG [JR_SV3TOV1_Sub048] (puzzle: Sensor v3, turn-off variant 1) |  |  | 135 | 171 | 233 | 
9 | GAGGUGUUAGGAUAUCGGAGAUGGAGAAGAACGGGAAGAGCCGAGAAGGAACAUGAGGAUCACCCAUGUAGGUG [JR_Exclu4_Sub030] (puzzle: Exclusion 4) |  |  | 326 | 270 | 696 | 
10 | GAGUACUGAGGAUAUACAUGAGGAUCACCCAUGUGUUCCAGCUAGGAAACUAGCAAAAGUAGAAGGCAGUACUG [salish99_ex3_r3_084] (Eterna round: R96, puzzle: Exclusion 3) | 311 | 23.2 |  |  |  | 19.3
11 | GAGUACUGAGGAUAUACAUGAGGAUCACCCAUGUGUUCCAGCUAGGAAACUAGCAAAAGUAGAAGGCAGUACUG [salish99_ex3_r3_084] (puzzle: Exclusion 3) |  |  |  | 18.9 |  | 
12 | GAGUAGCUAGGAUAUCGAAAACAUCACAUGAGGAUCACCCAUGUGCCGGGUGCUCAGAUGCGAGAAGGAGCAAAGA [Reatququ] (puzzle: Exclusion 5) |  |  | 219 | 131 | 175 | 
13 | GAGUAGUAAGGAUAUGUCUCUGGUGGCUACGGUCACUAGAGGCAGAAGGUACAUGAGGAUCACCCAUGUUUCUC [ExDelusion 9 - Jieux - Exclusion 4] (Eterna round: R97, puzzle: Exclusion 4) | 83.1 | 39.2 |  |  |  | 
14 | GAGUAGUGAGGAUAUGCAAUGAUCAUCGUACGAUGAGGCUGACAUGAGGAUCACCCAUGUAGAAGGCGCUGAUC [EX2 #18] (Eterna round: R97, puzzle: Exclusion 2) | 57.3 | 75.2 |  |  |  | 
15 | GAGUGACAUGAGGAUCACCCAUGUGAGGAUAUGCGACGGACCAAAUUAACAAUAGAAGGCAGAAGGCGCAUAAA [Exclusion 1 V10] (puzzle: Exclusion 1) |  |  | 26.9 | 33.1 | 31.1 | 
16 | GAGUGAGCGUGAGGAAUAUACAUGAGGAUCACCCAUGUUUGCUAAUAUAUUGCUCGUCUUAUAACAACAAUUAACUG [Mod-hoo-honey#ab] (Eterna round: R97, puzzle: Sensor, turn-off variant 1) | 12.6 | 13.7 |  |  |  | 
17 | GAGUGCUGAGGAUAUACAUGAGGAUCACCCAUGUGCUUCAGCUAGGAGACUAGCUUUGGUAGAAGGCAGUACUC [Mod of lroppy 23 - Jieux - Exclusion 3] (Eterna round: R97, puzzle: Exclusion 3) | 49.4 | 14.2 |  |  |  | 

Row | Sequence | apparent KD of MS2 coat protein (input ligand: FMN 200 uM) [nM] | apparent KD of MS2 coat protein (input ligand: none) [nM] | apparent KD of MS2 coat protein [1] [nM] | apparent KD of MS2 coat protein [2] [nM] | apparent KD of MS2 coat protein [3] [nM] | apparent KD of MS2 coat protein [4] [nM]
18 | GAGUUAACAUGAGGAAUAUACAUGAGGAUCACCCAUGUUAACAAAUUUAUUGCUCGUCUUAUAACAACAAUUAACUC [Alarm 5 - Jieux - Sensor, turn-off variant 1] (Eterna round: R97, puzzle: Sensor, turn-off variant 1) | 105 | 111 |  |  |  | 
19 | GAGUUAACGUGAGGAAUAUACAUGAGGAUCACCCAUGUUAACAAAUUUAUUGCUCGUCUUAUAACAACAAUUAACUC [Alarm 6 - Jieux - Sensor, turn-off variant 1] (Eterna round: R97, puzzle: Sensor, turn-off variant 1) | 23 | 27.7 |  |  |  | 
20 | GAGUUACAUGAGGAUCACCCAUGUGAGGAUAUGAGUCAGUCACGGUGACGUGGCUGACUCAGAAGGCACAAUGG [Mat - Exclusion 1 - JL Mod - D46] (Eterna round: R97, puzzle: Exclusion 1) | 256 | 380 |  |  |  | 
21 | GAUAAGGUAGGAUAUACGAAUAAAAAGGGUAGAAGAAGAACACAUGAGGAUCACCCAUGUAGAAGGACCAAGAG [Mat - Exclusion 2 - Mod of my Tesla design - D23] (puzzle: Exclusion 2) |  |  | 43 | 20.6 | 19.6 | 
22 | GAUAGGGCAGGAUAUCGAGAUCCGCACAUGAGGAUCACCCAUGUUCGGUCGAAAGACCGACGAGAAGGGCCGUAUC [Omei Ex5 E6] (Eterna round: R97, puzzle: Exclusion 5) | 698 | 536 |  |  |  | 
23 | GAUCAACAUGAGGAUCACCCAUGUGAGGAUAUGAUACUAUGUACUUCGGUACAUAGUAUCAGAAGGCACAUAAA [Ex1-3: 38] (puzzle: Exclusion 1) |  |  |  | 72.4 |  | 
24 | GAUCAUGCAGGAUAUACAUGAACCAUGAAAACAUGGUUUUCACAUGAGGAUCACCCAUGUAGAAGGGCAUGAUC [Omei Ex2 A7] (Eterna round: R97, puzzle: Exclusion 2) | 183 | 56.7 |  |  |  | 
25 | GAUCAUGCAGGAUAUACAUGGAACAUGUAAACAUGAAUUUCACAUGAGGAUCACCCAUGUAGAAGGGCAUGAUC [Omei Ex2 A13] (Eterna round: R97, puzzle: Exclusion 2) | 314 | 2200 |  |  |  | 
26 | GAUCCACAUGAGGAUCACCCAUGUUAGGAUAUUCAGCCUUGGUCACGGGAGUCAGGGCGGAGAAGGAACCCUUU [Eternabot (L2) Solution 16] (Eterna round: R97, puzzle: Exclusion 1) | 14.4 | 13 |  |  |  | 
27 | GAUCCUCAGACGGACGUCACGAAACAUGAGGAUCACCCAUGUGAGGAUAUCUCCAAAAGGUCGGCAGAGAAGGCACCAUAACAA [Eternabot solution 19] (Eterna round: R96, puzzle: Exclusion NG 3) | 261 | 139 |  |  |  | 131
28 | GAUCGUUUAGAGGAUAUCGUGCUAAACAUUACAUGAGAAGGCUAGACAUGAGGAUCACCCAUGUAUGCUCGUGA [Exclusion 6 - 8:b] (puzzle: Exclusion 6) |  |  |  | 14.8 |  | 
29 | GAUCUGUAAGGAUAUCGUGCAAGUUUCAAAAGAGGCUUGUGCGAGAAGGUACAUGAGGAUCACCCAUGUAGGUU [Omei Ex4 B15] (Eterna round: R97, puzzle: Exclusion 4) | 52.6 | 40.1 |  |  |  | 
30 | GAUGCACAUGAGGAUCACCCAUGUGAGGAUAUCAUUCCUAGAUCAGUCGGUCAGGAAAUGAGAAGGCGCCGGGA [Eternabot (L2) Solution 5] (Eterna round: R97, puzzle: Exclusion 1) | 28.6 | 23.6 |  |  |  | 
31 | GAUGUGGGUUUCCGGAGUAACAUGAGGAUCACCCAUGUAGAAGUUGGAGGGAUCAAGCUUUUUGGUCGUCAUAUGUG [JR_SV3TOV1_Sub052] (puzzle: Sensor v3, turn-off variant 1) |  |  | 288 | 246 | 422 | 
32 | GAUUAUGCGAGCUUUAGGGACAUGAGGAUCACCCAUGUUCGUCUUAUUAAUCUAGGUGCGCUAACAUACCUAAAUCU [JMF 47] (puzzle: Sensor v3, turn-off variant 1) |  |  | 21.5 | 32 | 23.7 | 
33 | GAUUAUGCGAGCUUUAGGGACAUGAGGAUCACCCAUGUUCGUCUUAUUAGUCUGAAUACGCUGACAUACCUAAAUCU [JMF 95] (puzzle: Sensor v3, turn-off variant 1) |  |  | 16.3 | 19.5 | 19.2 | 
34 | GAUUAUGCGAGCUUUAGGGACAUGAGGAUCACCCAUGUUCGUCUUAUUAGUCUGGGUGCACUGACAUACCUAAAUCU [JMF 93] (puzzle: Sensor v3, turn-off variant 1) |  |  | 169 | 202 | 320 | 
